Assay results from US20240209086A1 (PETMEDIX, published 2024).
Changes are numbered by the printed parent chain.

B1: PMX158 (monospecific anti-canine CD3, canine IgG-B effector function deficient Fc) (antibody, V domains shown)
VH: ELTLQESGPGLVKPSQTLSLTCVVSGGSVTRSYYWNWIRQRPGRGLEWMGYWTGTTNYNPAFQGRISITADTAKNQCSLQLSSMTTEDTAVYYCAREGGKLLGAFGHWGQGTLVTVSS
VL: SYVLTQLPSKNVTLKQPAHITCGGDKIGSKSVHWYQQKLGQAPVLIIYYDSSRLTGIPERFSGANSGNTATLTISGALAEDEADYYCQVWDSSAKASVFGGGTHLTVL
B2: PMX163 (monospecific anti-canine CD3, canine IgG-B effector function deficient Fc) (antibody, V domains shown)
VH: ELALQESGPGLVRPSQTLSLTCVVSGGSVTRSYYWNWIRQRPGRGLEWMGYWTGTTIYNPAFQGRISITVDTAKNQFSLHLISMTTEDTAVYYCGREGGSSLGAIAYWGQGTRVTVSS
VL: B1 VL with K26N, L54P, S97A
B3: PMX165 (monospecific anti-canine CD3, canine IgG-B effector function deficient Fc) (antibody)
heavy: EVQLVESGGDLVKPGGSLRLSCVASGFNFSASHMSWVRQAPGKGLQWVAYITNAGGRISYADAVKGRFTISRDNAKNTLYLQMSSLRVEDTAVYYCATERPGRRMGLKDYGMDYWGHGTSLFVSSASTTAPSVFPLAPSCGSTSGSTVALACLVSGYFPEPVTVSWNSGSLTSGVHTFPSVLQSSGLYSLSSMVTVPSSRWPSETFTCNVAHPASKTKVDKPVPKRENGRVPRPPDCPKCPAPESLGGPSVFIFPPKPKDTLLIARTPEVTCVVVDLGREDPEVQISWFVDGKQMQTAKTQPREEQFNGTYRVVSVLPIGHQDWLKGKQFTCKVNHIGLPSPIERTISKARGQAHQPSVYVLPPSREELSKNTVSLTCLIKDFFPPDIDVEWQSNGQQEPESKYRTTPPQLDEDGSYFLYSKLSVDKSRWQRGDTFICAVMHEALHNHYTQKSLSHSPGK
VL: B1 VL with K26N, L54P
B4: PMX157 (monospecific anti-canine CD3, canine IgG-B effector function deficient Fc) (antibody, V domains shown)
VH: ELTLQESGPGLVKPSQTLSLTCVVSGGSVTSSYFWNWIRQRPGRGLEWMGYWTGSTIYSPAFQGRISITPDTAKNQFSLQLSSMTTEDTAVYYCSREGGSTLGAFAYWGQGTLVTVSS
VL: B1 VL with L54P
B5: PMX159 (monospecific anti-canine CD3, canine IgG-B effector function deficient Fc) (antibody, V domains shown)
VH: ELTLQESGPGLVKPSQTLSLTCVVSGGSVTRSYYWNWIRQRPGRGLEWMGYWTGSTIYNPTFQGRISITADTAKSQFSLQLRSMTTEDTAMYFCAREGGKSLGAFAYWGQGTLVTVSS
VL: B1 VL with S31N, L45M, L54P, S97A
B6: PMX160 (monospecific anti-canine CD3, canine IgG-B effector function deficient Fc) (antibody)
heavy: EVQMVESGGDLVKPGGSLRFSCVASGFTFSSYHMSWVRQAPGKGLQWVAYINSGGSRTSYADAVKGRFTISRDNAKNTLYLQMNSLRAEDTAVYYCASGRSPPPLGSFDYGLDYWGHGTSLFVSSASTTAPSVFPLAPSCGSTSGSTVALACLVSGYFPEPVTVSWNSGSLTSGVHTFPSVLQSSGLYSLSSMVTVPSSRWPSETFTCNVAHPASKTKVDKPVPKRENGRVPRPPDCPKCPAPESLGGPSVFIFPPKPKDTLLIARTPEVTCVVVDLGREDPEVQISWFVDGKQMQTAKTQPREEQFNGTYRVVSVLPIGHQDWLKGKQFTCKVNHIGLPSPIERTISKARGQAHQPSVYVLPPSREELSKNTVSLTCLIKDFFPPDIDVEWQSNGQQEPESKYRTTPPQLDEDGSYFLYSKLSVDKSRWQRGDTFICAVMHEALHNHYTQKSLSHSPGK
VL: B1 VL with K26N, L54P, S97W, G101E, H104Q
B7: PMX162 (monospecific anti-canine CD3, canine IgG-B effector function deficient Fc) (antibody)
heavy: EMQLVESGGDLVKPGGSLRLSCVASGFTFSTYHMSWVRQAPGKGLQWVAYSNSGGTRTYYADAVKGRFTISRDNVKNTLYLQMNSLRAEDTAVYYCASEGSGGGRYGFKDYGMDYWGHGTSLFVSTASTTAPSVFPLAPSCGSTSGSTVALACLVSGYFPEPVTVSWNSGSLTSGVHTFPSVLQSSGLYSLSSMVTVPSSRWPSETFTCNVAHPASKTKVDKPVPKRENGRVPRPPDCPKCPAPESLGGPSVFIFPPKPKDTLLIARTPEVTCVVVDLGREDPEVQISWFVDGKQMQTAKTQPREEQFNGTYRVVSVLPIGHQDWLKGKQFTCKVNHIGLPSPIERTISKARGQAHQPSVYVLPPSREELSKNTVSLTCLIKDFFPPDIDVEWQSNGQQEPESKYRTTPPQLDEDGSYFLYSKLSVDKSRWQRGDTFICAVMHEALHNHYTQKSLSHSPGK
VL: B1 VL with K26N, L54P, S97W, G101E, H104Q
B8: PMX178 (monospecific anti-canine CD3, canine IgG-B effector function deficient Fc) (antibody, V domains shown)
VH: B2 VH
VL: B1 VL with K26N, S29R, L54P, S97A
B9: PMX166 (monospecific anti-canine CD3, canine IgG-B effector function deficient Fc) (antibody, V domains shown)
VH: B4 VH
VL: B1 VL with K26N, L54P
B10: PMX173 (monospecific anti-canine CD3, canine IgG-B effector function deficient Fc) (antibody)
heavy: B7 heavy with M2V, N52H, V75G
VL: B1 VL with K26N, L54P, S97W, G101E, H104Q

Target: canine CD3 on canine T cells (canine PBMC) (canine, UniProt P27597 22-202)
Test: cell-based or functional assay

Sequence of canine CD3 on canine T cells (canine PBMC) (P27597 22-202 limits assumed, chain 1 of 3): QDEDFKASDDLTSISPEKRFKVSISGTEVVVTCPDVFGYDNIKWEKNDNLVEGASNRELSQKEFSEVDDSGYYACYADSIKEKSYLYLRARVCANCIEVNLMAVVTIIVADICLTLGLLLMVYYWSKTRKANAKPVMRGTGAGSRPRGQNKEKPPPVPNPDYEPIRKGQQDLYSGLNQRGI
Sequence of canine CD3 on canine T cells (canine PBMC) (chain, as listed by the source limits assumed, chain 2 of 3): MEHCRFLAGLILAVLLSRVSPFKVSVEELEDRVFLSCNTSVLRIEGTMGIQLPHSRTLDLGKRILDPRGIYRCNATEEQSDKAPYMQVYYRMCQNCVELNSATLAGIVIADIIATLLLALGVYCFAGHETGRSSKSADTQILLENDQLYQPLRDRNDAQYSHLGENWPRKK
Sequence of canine CD3 on canine T cells (canine PBMC) (chain, as listed by the source limits assumed, chain 3 of 3): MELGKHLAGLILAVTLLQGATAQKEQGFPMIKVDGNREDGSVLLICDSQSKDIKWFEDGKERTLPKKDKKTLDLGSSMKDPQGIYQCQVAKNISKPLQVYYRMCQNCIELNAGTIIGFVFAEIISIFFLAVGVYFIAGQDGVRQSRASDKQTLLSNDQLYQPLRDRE

Binder	CD25 Activation, Day 6, IS	CD25 Activation, Day 6, PB	CD25 Activation, Day 9, IS	CD25 Activation, Day 9, PB	IFNy Concentration pg/ml, Day 6, IS	IFNy Concentration pg/ml, Day 9, IS	IFNy Concentration pg/ml, Day 9, PB	Ki67 Proliferation, Day 6, IS	Ki67 Proliferation, Day 6, PB	Ki67 Proliferation, Day 9, IS	Ki67 Proliferation, Day 9, PB
B1	13.1	9.65	5.45	12.3	48.2 pg/mL	88.3 pg/mL	2440 pg/mL	2.63	0.54	0.45	0
B2	13.3	18.8	10.1	14.6	56.2 pg/mL	145 pg/mL	3770 pg/mL	4.91	0.3	0.71	0.75
B3	12.1	13.4	10.4	23.6	74.6 pg/mL	108 pg/mL	1370 pg/mL	1.67	0.26	1.3	0
B4	9.65	11.6	9.96	8.72	44.4 pg/mL	209 pg/mL	3140 pg/mL	1.24	0.4	0.85	0.34
B5	11.3	11.5	9.13	13.1	137 pg/mL	262 pg/mL	3050 pg/mL	1.69	0.37	1.28	0
B6	10.6	9.42	7.14	5.98	36.5 pg/mL	114 pg/mL	1460 pg/mL	0.84	0.12	1.87	0.33
B7	16	8.64	8.75	10.4	61.1 pg/mL	89.2 pg/mL	330 pg/mL	1.73	0.36	0.51	0.43
B8	9.79	20.5	8.41	9.23	24.7 pg/mL	223 pg/mL	2110 pg/mL	0.84	1.13	1.83	0.16
B9	11.4	14.5	9.15	22	67.6 pg/mL	112 pg/mL	2780 pg/mL	2.77	0.95	0.92	1.28
B10	8.5	13.3	9.37	11.5	56.7 pg/mL	125 pg/mL	1110 pg/mL	1.01	0.57	1.38	0.34
